Changes are numbered by the printed parent chain.
Experiments:
[1] = system: MAb 4H12; experiment: Epitope mapping of rbST for MAb 4H12 (Pepscan, ELISA-type read out); assay type: binding; settings: all four epitope designs (sets 1-4: linear 15-mers, double-Ala, α-helical loop mimics)
From the text: The entire sequence of rbST (Figure 1A) was epitope mapped for antibody 4H12 by Pepscan Presto BV (Lelystad, The Netherlands), as described before. Briefly, the rbST sequence was derived from the endogenous bST sequence by replacing the N-terminal alanine (Ala) with a methionine (Met) residue. With this rbST sequence, four sets of peptides were produced and used to determine the binding epitope of MAb 4H12: (i) linear peptides of 15 amino acids in length with an offset of one amino acid (set 1), (ii) linear peptides similar to set 1, with the amino acids on place 10 and 11 replaced by alanine (Ala); a native Ala present on place 10 and/or 11 was replaced by glycine (Gly) (set 2), (iii) α-helical loop mimics of 21 amino acids in length with an offset of one amino acid and cysteine residues on place 1 and 5 to enable connection with an α-helix-inducing mP2 chemical linkage of peptides onto scaffolds (CLIPS, set 3) and (iv) α-helical loop mimics similar to set 3, with the two Cys residues placed on amino acid numbers 1 and 8, which were also linked with mP2 CLIPS (set 4). Binding of Mab 4H12 to the described peptides is quantified using an ELISA-type read out.
Figure 1 Schematic representation of the four epitope mapping approaches to identify peptide-based mimics of recombinant bovine somatotropin (rbST) that bind to the monoclonal antibody 4H12. […]

[2] = system: MAb 4H12; experiment: MIPA binding of MAb 4H12 to peptide- or rbST-coupled microspheres; settings: peptide or protein coupled to microspheres, MAGPIX read-out
Experimental: (§1) Microsphere preparation was executed according to Bremer et al. with the exception that Magplex® microsphere sets instead of seroMAP microspheres were used. During the procedure, microspheres were trapped using a magnet (1 min) and after removal of the supernatant, trapped microspheres were resuspended by vortexing (1 min). The peptides pep, pep-K, pep-peg, pep-aca and rbST standard were coupled to the different internally dyed microsphere sets, i.e., microsphere set numbers 012, 043, 029, 038 and 064, respectively (Figure 2). The internal dye gives the microsphere set a unique spectral signature, and consequently, a unique read-out region. For each microsphere set, 2.5 × 10^6 microspheres were covalently coupled with a two-step carbodiimide reaction using 500 μL of 100 µg mL^−1 peptide in boric acid solution (100 mM boric acid, 1M NaCl, adjusted to pH 8.3 with NaOH), and 100 µg mL^−1 rbST in MES buffer (50 mM MES pH 5.0). After coupling, the microspheres were stable for over 1 year when stored in a blocking buffer (PBS, 0.1% BSA, 0.02% Tween-20 and 0.05% NaN3) at 2–8 °C in the dark until use, with the exception for the microspheres measured with XPS, which were stored in Milli-Q water until use.
(§2) In this procedure, all dilution and washing steps were executed using PBST containing 0.1% BSA. In total, 100 μL of rbST, eST, pST and hST standard solution or injection preparation extract were added to a low bind 96-well microtiter plate. Next, 10 μL of 20-, 2-, 2-, 1- and 0.7 ng mL^−1 antibody for microspheres coated with, respectively, pep, pep-peg, pep-aca, k-pep and rbST and microspheres (10 μL diluted suspension containing about 1250 microspheres per microsphere set) were added to each well. The microtiter plate was incubated for 20 min on a microtiter plate shaker to allow competition between the immobilized rbST epitope peptides or protein on the microspheres and the somatotropin (ST) present in the solution for the available antibody binding sites. After incubation, the microspheres were trapped by a magnet and washed twice. After washing, a 125 μL, 625-times diluted PE labeled Goat anti Mouse antibody was added and incubated for 20 min on a microtiter plate shaker. After this incubation step, microspheres were trapped with a magnet, supernatant removed and 125 µL PBST containing 0.1% BSA added. The plate was briefly mixed on the microtiter plate shaker before measuring on the imaging planar array analyzer (MAGPIX).

[3] = system: MAb 4H12; experiment: Inhibition MIPA (microsphere peptide-based immunoassay, indirect competitive format, MAGPIX); assay type: binding; settings: for recognition / cross-reactivity of somatotropins with MAb 4H12: calibration curves up to 100 µg mL^-1, PBST/BSA; for concentration of full inhibition: somatotropin as competitor in PBST/BSA
Experimental: as §1, §2
Figure 3 Summarized workflow and assay principle of the indirect competitive assay format for somatotropins. In absence of rbST (upper part), MAb 4H12 binds to the peptide-coated microspheres, which enables binding of the PE coupled secondary antibody. The presence of PE results in a high signal in the imaging planar array analyzer. In presence of rbST (lower part), MAb 4H12 binds to the rbST in solution. […] As no PE is present, this will result in a low signal in the imaging planar array analyzer.

[4] = system: MAb 4H12; experiment: Surface plasmon resonance, MAb 4H12 on immobilized rbST or pep-peg; assay type: binding
From the text: (§3) Although the literature often describes the need for spacers in peptide-based biorecognition assays, in our assay format based on the MAb 4H12 and the peptide 115[…]125 biorecognition pair, no spacers were required. […] The presence of peptides on the microspheres was proven by XPS measurements (Supplementary Materials, Figure S2). In addition, the specificity was compared by initial surface plasmon resonance (SPR) experiments, where the pep-peg peptide was coupled to one microfluidic channel and rbST to another channel of the sensor surface. The sensor channels were incubated with two different rbST-induced monoclonal antibodies, MAb 4H12, which specifically binds the peptide 115[…]125 and MAb 5E2, which recognizes another, yet unknown, epitope. […] Next, MAb 4H12 concentrations were optimized for the microsphere peptide-based immunoassay to a dilution factor corresponding to a signal intensity of 1000 MFI for the blank standard (dilution buffer, Supplementary Materials, Table S2). […] The antibody concentrations in combination with the respective microspheres were used to determine the sensitivity of MAb 4H12 for the determination of full rbST-protein in standard solutions, as shown in Figure 4. For bot, rbST-protein and peptide immobilized microspheres, typical dose-response curves were obtained, with IC50 values of, respectively, 0.20 µg mL^−1 and 0.11 µg mL^−1.

[5] = system: MAb 5E2; experiment: Surface plasmon resonance, MAb 5E2 on immobilized rbST or pep-peg; assay type: binding
From the text: as §3

[6] = system: dairy cows; settings: according to the manufacturer's protocol; cited from earlier work
From the text: RbST is a 191 amino acid long protein hormone that enhances growth and lactating performance in cattle. When administered to dairy cows according to the manufacturer’s protocol, milk production can increase up to 25% [11]. The use of rbST for milk-enhancing properties is approved in several countries, but is banned in the European Union. To control this ban, a strategy to detect rbST misuse in the EU has been described by Smits et al.. The strategy for rbST in serum and milk from dairy cows is based on the digestion of the proteins and detection of rbST-specific peptides formed ...

[7] = microspheres coupled with pep, n = 2

DLEEGILALMR [pep]
binding between MAb 4H12 and epitope sequence [1]: binding | binding of MAb 4H12 to coupled microspheres [2]: showed binding

MRIEGLADLEL [pep-scr, linear peptide scrambled]
binding of MAb 4H12 to coupled microspheres [2]: did not show any binding | binding of MAb 4H12 to coupled microspheres ([2]; listed as scrambled peptide): no binding occurred

hST: human Somatotropin from Sigma-Aldrich
recognition / cross-reactivity of somatotropins with MAb 4H12 [3, 7]: not able to recognize and bind

B1: rbST: 191 amino acid long protein hormone; rbST protein standard from NHPP (Dr. Parlow) (protein, UniProt P01246 27-217, looked up)
Somatotropin: AFPAMSLSGLFANAVLRAQHLHQLAADTFKEFERTYIPEGQRYSIQNTQVAFCFSETIPAPTGKNEAQQKSDLELLRISLLLIQSWLGPLQFLSRVFTNSLVFGTSDRVYEKLKDLEEGILALMRELEDGTPRAGQILKQTYDKFDTNMRSDDALLKNYGLLSCFRKDLHKTETYLRVMKCRRFGEASCAF
SPR binding of MAb 4H12 [4]: Both MAbs showed binding | IC50 of rbST in inhibition MIPA, per microsphere set ([3]; competitor rbST in PBST/0.1% BSA, label = peptide or protein coupled to the microspheres, MAb 4H12 20, 2, 2, 1, 0.7 ng mL^-1 for pep, pep-peg, pep-aca, pep-K, rbST, 20 min incubation, GAM-PE, MAGPIX, four-parameter fit, n = 3): 0.20 µg/mL | inhibition of MAb 4H12 at 1 µg mL^-1 ([3]; somatotropin as competitor at 1 µg mL^-1 in PBST/BSA, microspheres coupled with pep, n = 2): almost completely inhibits | SPR binding of MAb 5E2 [5]: Both MAbs showed binding | binding of MAb 4H12 to coupled microspheres [2]: showed binding | increase of milk production [6]: up to 25%

B2: eST: equine somatotropin from Bresagen (protein, UniProt P01245 27-216, looked up)
Somatotropin: FPAMPLSSLFANAVLRAQHLHQLAADTYKEFERAYIPEGQRYSIQNAQAAFCFSETIPAPTGKDEAQQRSDMELLRFSLLLIQSWLGPVQLLSRVFTNSLVFGTSDRVYEKLRDLEEGIQALMRELEDGSPRAGQILKQTYDKFDTNLRSDDALLKNYGLLSCFKKDLHKAETYLRVMKCRRFVESSCAF
recognition / cross-reactivity of somatotropins with MAb 4H12 [3, 7]: cross-reactivity was seen | concentration of full inhibition [3, 7]: around 100 µg mL^-1

B3: pST: Porcine Somatotropin from Sigma-Aldrich (protein, UniProt P01248 27-216, looked up)
Somatotropin: B2 Somatotropin with M72V, L91F, R113K
recognition / cross-reactivity of somatotropins with MAb 4H12 [3, 7]: cross-reactivity was seen | concentration of full inhibition [3, 7]: around 100 µg mL^-1

From article PMC8946150, “Microsphere Peptide-Based Immunoassay for the Detection of Recombinant Bovine Somatotropin in Injection Preparations” (Biosensors, 2022)
